From PMC9536601, “Binding of adenovirus species C hexon to prothrombin and the influence of hexon on vector properties in vitro and in vivo” (PLoS Pathogens, 2022)

What was measured:
Assay in all cases: SPR; Biacore T200; about 300 to 5,000 RU of Ad virions immobilised on a CM5 chip, coagulation factors flowed over at four concentrations, 50 uL/min; running buffer 10 mM HEPES, 150 mM NaCl, 1 mM CaCl2, 0.5 mM MgCl2, 0.1% BSA, 0.05% polysorbate 20, pH 7.4; regeneration with 3 mM EDTA; global fit to a 1:1 kinetic interaction model, double referencing
Details in all cases: both partners purified
[1] = molecular target: T1, human prothrombin (coagulation factor II) (human, UniProt P00734 44-622, gamma-carboxylated glutamate residues in the Gla domain)
T1 construct: prothrombin (FII), human, plasma-derived; also called human FII; FII; source: bought: Haematologic Technologies, Inc. (HCP-0010), plasma-derived

[2] = molecular target: T1, human prothrombin (coagulation factor …); remark: listed apart in the source
[3] = molecular target: T2, mouse coagulation factor X (mouse, UniProt O88947 41-481, gamma-carboxylated glutamate residues in the Gla domain)
T2 construct: coagulation factor X, mouse, plasma-derived; Pretreated with 125 uM GGACK (EGRCK); written here as one entry; also called mouse FX; source: bought: Haematologic Technologies, Inc. (MCX-5050), plasma-derived

[4] = molecular target: T3, human coagulation factor X (human, UniProt P00742 41-488, gamma-carboxylated glutamate residues in the Gla domain)
T3 construct: coagulation factor X, human, plasma-derived; written here as one entry; also called human FX; FX; source: bought: Haematologic Technologies, Inc. (HCX-0050), plasma-derived

[5] = molecular target: T4, bovine coagulation factor X (bovine, UniProt P00743 41-492, gamma-carboxylated glutamate residues in the Gla domain)
T4 construct: coagulation factor X, bovine, plasma-derived; Pretreated with 125 uM GGACK (EGRCK); written here as one entry; also called bovine FX; source: bought: Haematologic Technologies, Inc. (BCX-1050), plasma-derived

[6] = molecular target: T5, bovine prothrombin (coagulation factor II) (bovine, UniProt P00735 44-625, gamma-carboxylated glutamate residues in the Gla domain)
T5 construct: prothrombin (FII), bovine, plasma-derived; also called bovine FII; source: bought: Haematologic Technologies, Inc. (BCP-1010), plasma-derived

[7] = molecular target: T6, mouse prothrombin (coagulation factor II) (mouse, UniProt P19221 44-618, gamma-carboxylated glutamate residues in the Gla domain)
T6 construct: prothrombin (FII), mouse, plasma-derived; also called mouse FII
T6 sequence (P19221 44-618): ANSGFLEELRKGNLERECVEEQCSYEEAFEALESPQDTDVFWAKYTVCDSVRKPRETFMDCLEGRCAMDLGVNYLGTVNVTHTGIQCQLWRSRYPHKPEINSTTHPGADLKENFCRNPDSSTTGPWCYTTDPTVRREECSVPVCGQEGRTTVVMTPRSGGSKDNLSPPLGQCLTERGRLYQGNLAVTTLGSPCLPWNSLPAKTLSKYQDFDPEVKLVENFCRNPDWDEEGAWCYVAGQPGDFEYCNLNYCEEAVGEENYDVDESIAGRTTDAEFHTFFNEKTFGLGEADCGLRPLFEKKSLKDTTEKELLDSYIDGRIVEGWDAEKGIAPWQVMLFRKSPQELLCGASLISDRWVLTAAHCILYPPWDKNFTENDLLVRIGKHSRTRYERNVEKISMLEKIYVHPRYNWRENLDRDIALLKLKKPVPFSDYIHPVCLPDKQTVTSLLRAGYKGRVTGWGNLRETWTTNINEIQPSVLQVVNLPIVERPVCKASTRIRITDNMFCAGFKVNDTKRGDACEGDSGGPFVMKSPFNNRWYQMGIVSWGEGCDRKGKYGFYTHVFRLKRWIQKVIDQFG

T5 sequence (P00735 44-625): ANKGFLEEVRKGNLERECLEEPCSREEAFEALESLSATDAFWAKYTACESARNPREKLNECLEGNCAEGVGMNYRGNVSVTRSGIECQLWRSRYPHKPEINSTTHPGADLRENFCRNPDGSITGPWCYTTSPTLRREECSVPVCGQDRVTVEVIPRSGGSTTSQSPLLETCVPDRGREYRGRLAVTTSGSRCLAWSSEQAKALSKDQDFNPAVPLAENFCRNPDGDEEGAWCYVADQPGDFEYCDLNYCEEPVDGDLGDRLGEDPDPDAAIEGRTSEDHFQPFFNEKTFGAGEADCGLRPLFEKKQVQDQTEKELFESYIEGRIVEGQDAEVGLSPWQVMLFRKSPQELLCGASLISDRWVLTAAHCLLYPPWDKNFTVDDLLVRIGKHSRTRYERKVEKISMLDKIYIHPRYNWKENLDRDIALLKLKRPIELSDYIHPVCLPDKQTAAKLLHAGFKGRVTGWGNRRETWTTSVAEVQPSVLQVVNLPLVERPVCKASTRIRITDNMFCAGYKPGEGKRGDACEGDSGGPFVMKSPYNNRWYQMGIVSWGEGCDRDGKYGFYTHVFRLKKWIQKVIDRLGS

B1: hexon of the E1/E3-deleted Ad5 vector Ad5.0 (wild-type Ad5 capsid, on virions) (natural protein, human adenovirus 5)
chain: ATPSMMPQWSYMHISGQDASEYLSPGLVQFARATETYFSLNNKFRNPTVAPTHDVTTDRSQRLTLRFIPVDREDTAYSYKARFTLAVGDNRVLDMASTYFDIRGVLDRGPTFKPYSGTAYNALAPKGAPNPCEWDEAATALEINLEEEDDDNEDEVDEQAEQQKTHVFGQAPYSGINITKEGIQIGVEGQTPKYADKTFQPEPQIGESQWYETEINHAAGRVLKKTTPMKPCYGSYAKPTNENGGQGILVKQQNGKLESQVEMQFFSTTEATAGNGDNLTPKVVLYSEDVDIETPDTHISYMPTIKEGNSRELMGQQSMPNRPNYIAFRDNFIGLMYYNSTGNMGVLAGQASQLNAVVDLQDRNTELSYQLLLDSIGDRTRYFSMWNQAVDSYDPDVRIIENHGTEDELPNYCFPLGGVINTETLTKVKPKTGQENGWEKDATEFSDKNEIRVGNNFAMEINLNANLWRNFLYSNIALYLPDKLKYSPSNVKISDNPNTYDYMNKRVVAPGLVDCYINLGARWSLDYMDNVNPFNHHRNAGLRYRSMLLGNGRYVPFHIQVPQKFFAIKNLLLLPGSYTYEWNFRKDVNMVLQSSLGNDLRVDGASIKFDSICLYATFFPMAHNTASTLEAMLRNDTNDQSFNDYLSAANMLYPIPANATNVPISIPSRNWAAFRGWAFTRLKTKETPSLGSGYDPYYTYSGSIPYLDGTFYLNHTFKKVAITFDSSVSWPGNDRLLTPNEFEIKRSVDGEGYNVAQCNMTKDWFLVQMLANYNIGYQGFYIPESYKDRMYSFFRNFQPMSRQVVDDTKYKDYQQVGILHQHNNSGFVGYLAPTMREGQAYPANFPYPLIGKTAVDSITQKKFLCDRTLWRIPFSSNFMSMGALTDLGQNLLYANSAHALDMTFEVDPMDEPTLLYVLFEVFDVVRVHRPHRGVIETVYLRTPFSAGNATT
notes: hexon of human adenovirus type 5, unchanged, as it stands in the capsid of the vector; Immobilised as whole vector virions; source: E1/E3-deleted Ad5 vector grown on 293 cells, virions purified by CsCl ultracentrifugation
Kd [1]: 35 nM
koff [1]: 0.00317 s⁻¹
kon [1]: 90500 M⁻¹ s⁻¹

B2: hexon of wild-type human adenovirus type 6 (on virions) (natural protein)
chain: ATPSMMPQWSYMHISGQDASEYLSPGLVQFARATETYFSLNNKFRNPTVAPTHDVTTDRSQRLTLRFIPVDREDTAYSYKARFTLAVGDNRVLDMASTYFDIRGVLDRGPTFKPYSGTAYNALAPKGAPNSCEWEQNETAQVDAQELDEEENEANEAQAREQEQAKKTHVYAQAPLSGIKITKEGLQIGTADATVAGAGKEIFADKTFQPEPQVGESQWNEADATAAGGRVLKKTTPMKPCYGSYARPTNSNGGQGVMVEQNGKLESQVEMQFFSTSTNATNEVNNIQPTVVLYSEDVNMETPDTHLSYKPKMGDKNAKVMLGQQAMPNRPNYIAFRDNFIGLMYYNSTGNMGVLAGQASQLNAVVDLQDRNTELSYQLLLDSIGDRTRYFSMWNQAVDSYDPDVRIIENHGTEDELPNYCFPLGGIGITDTFQAVKTTAANGDQGNTTWQKDSTFAERNEIGVGNNFAMEINLNANLWRNFLYSNIALYLPDKLKYNPTNVEISDNPNTYDYMNKRVVAPGLVDCYINLGARWSLDYMDNVNPFNHHRNAGLRYRSMLLGNGRYVPFHIQVPQKFFAIKNLLLLPGSYTYEWNFRKDVNMVLQSSLGNDLRVDGASIKFDSICLYATFFPMAHNTASTLEAMLRNDTNDQSFNDYLSAANMLYPIPANATNVPISIPSRNWAAFRGWAFTRLKTKETPSLGSGYDPYYTYSGSIPYLDGTFYLNHTFKKVAITFDSSVSWPGNDRLLTPNEFEIKRSVDGEGYNVAQCNMTKDWFLVQMLANYNIGYQGFYIPESYKDRMYSFFRNFQPMSRQVVDDTKYKDYQQVGIIHQHNNSGFVGYLAPTMREGQAYPANVPYPLIGKTAVDSITQKKFLCDRTLWRIPFSSNFMSMGALTDLGQNLLYANSAHALDMTFEVDPMDEPTLLYVLFEVFDVVRVHRPHRGVIETVYLRTPFSAGNATT
Kd [2]: 2.7 nM
koff [2]: 0.000182 s⁻¹
kon [2]: 67000 M⁻¹ s⁻¹
Kd [3]: 0.42 nM
koff [3]: 4.08e-05 s⁻¹
kon [3]: 96600 M⁻¹ s⁻¹
Kd [4]: 28 nM
koff [4]: 0.00326 s⁻¹
kon [4]: 116000 M⁻¹ s⁻¹
Kd [5]: 100 nM
koff [5]: 0.0147 s⁻¹
kon [5]: 144000 M⁻¹ s⁻¹
Kd [6]: 75 nM
koff [6]: 0.00395 s⁻¹
kon [6]: 53000 M⁻¹ s⁻¹
Kd [7]: 9.9 nM
koff [7]: 0.000575 s⁻¹
kon [7]: 58200 M⁻¹ s⁻¹
